# What was measured:
# Experiment in all cases: GroEL-490 bead column capture of denatured serum, ATP elution, LC-MS-MS
# [1] = molecular target: hypothetical protein FLJ21439 (Homo sapiens)
# [2] = molecular target: hypothetical protein FLJ35834 (Homo sapiens)
# [3] = molecular target: UDP glycosyltransferase 2 family, polypeptide B7 (Homo sapiens) (UniProt P16662)
# [4] = molecular target: POU domain, class 2, transcription factor 1 (Homo sapiens) (UniProt P14859)
# [5] = molecular target: ectonucleoside triphosphate diphosphohydrolase 7 (Homo sapiens) (UniProt Q9NQZ7)
# [6] = molecular target: NYD-SP11 protein (Homo sapiens)
# [7] = molecular target: alpha 1 type IX collagen isoform 1 precursor (Homo sapiens) (UniProt P20849)
# [8] = molecular target: WD repeat membrane protein PWDMP (Homo sapiens) (UniProt Q8NEZ3)
# [9] = molecular target: similar to KIAA2018 protein (Homo sapiens) (UniProt Q68DE3)
# [10] = molecular target: PDZ domain-containing guanine nucleotide exchange factor I (Homo sapiens) (UniProt Q8TEU7)
# [11] = molecular target: hypothetical protein FLJ12178 (Homo sapiens)
# [12] = molecular target: phosphoinositol 3-phosphate-binding protein-2 (Homo sapiens) (UniProt Q9HAU0)
# [13] = molecular target: 3-phosphoinositide dependent protein kinase-1 (Homo sapiens) (UniProt O15530)
# [14] = molecular target: H2A histone family, member X (Homo sapiens) (UniProt P16104)
# [15] = molecular target: brefeldin A-inhibited guanine nucleotide-exchange protein 1 (Homo sapiens) (UniProt Q9Y6D6)
# [16] = molecular target: Rho GTPase activating protein 21 (Homo sapiens) (UniProt Q5T5U3)
# [17] = molecular target: similar to zinc finger, CW-type with PWWP domain 1 (Homo sapiens)
# [18] = molecular target: stress 70 protein chaperone, microsome-associated, 60 kDa (Homo sapiens) (UniProt P48723)
# [19] = molecular target: inter-alpha (globulin) inhibitor, H2 polypeptide (Homo sapiens) (UniProt P19823)
# [20] = molecular target: H factor 1 (complement) (Homo sapiens) (UniProt P08603)
# [21] = molecular target: MAP/ERK kinase kinase 4 isoform a (Homo sapiens) (UniProt Q9Y6R4)
# [22] = molecular target: titin isoform N2-A (Homo sapiens) (UniProt Q8WZ42)
# [23] = molecular target: KIAA0317 (Homo sapiens) (UniProt O15033)
# [24] = molecular target: baculoviral IAP repeat-containing 6 (Homo sapiens) (UniProt Q9NR09)
# [25] = molecular target: tumor protein p53 binding protein, 2 (Homo sapiens) (UniProt Q13625)
# [26] = molecular target: MAX dimerization protein 5 (Homo sapiens) (UniProt Q8IWI9)
# [27] = molecular target: coronin, actin binding protein, 1B (Homo sapiens) (UniProt Q9BR76)
# [28] = molecular target: kinesin family member 23 isoform 1 (Homo sapiens) (UniProt Q02241)
# [29] = molecular target: similar to CXYorf1-related protein (Homo sapiens)
# [30] = molecular target: synovial sarcoma, X breakpoint 2 isoform a (Homo sapiens) (UniProt Q16385)
# [31] = molecular target: apolipoprotein A-I precursor (Homo sapiens) (UniProt P02647)
# Chain of apolipoprotein A-I precursor (Homo sapiens) (P02647 25-267 limits assumed): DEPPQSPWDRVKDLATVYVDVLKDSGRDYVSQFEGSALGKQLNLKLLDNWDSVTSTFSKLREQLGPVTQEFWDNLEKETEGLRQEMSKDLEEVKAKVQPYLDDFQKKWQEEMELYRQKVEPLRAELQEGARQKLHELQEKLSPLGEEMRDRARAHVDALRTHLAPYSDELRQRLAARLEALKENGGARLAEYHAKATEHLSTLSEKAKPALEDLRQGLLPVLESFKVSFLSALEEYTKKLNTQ
# [32] = molecular target: dynein, cytoplasmic, heavy polypeptide 2 (Homo sapiens) (UniProt Q8NCM8)
# Chain of dynein, cytoplasmic, heavy polypeptide 2 (Homo sapiens) (Q8NCM8 whole entry): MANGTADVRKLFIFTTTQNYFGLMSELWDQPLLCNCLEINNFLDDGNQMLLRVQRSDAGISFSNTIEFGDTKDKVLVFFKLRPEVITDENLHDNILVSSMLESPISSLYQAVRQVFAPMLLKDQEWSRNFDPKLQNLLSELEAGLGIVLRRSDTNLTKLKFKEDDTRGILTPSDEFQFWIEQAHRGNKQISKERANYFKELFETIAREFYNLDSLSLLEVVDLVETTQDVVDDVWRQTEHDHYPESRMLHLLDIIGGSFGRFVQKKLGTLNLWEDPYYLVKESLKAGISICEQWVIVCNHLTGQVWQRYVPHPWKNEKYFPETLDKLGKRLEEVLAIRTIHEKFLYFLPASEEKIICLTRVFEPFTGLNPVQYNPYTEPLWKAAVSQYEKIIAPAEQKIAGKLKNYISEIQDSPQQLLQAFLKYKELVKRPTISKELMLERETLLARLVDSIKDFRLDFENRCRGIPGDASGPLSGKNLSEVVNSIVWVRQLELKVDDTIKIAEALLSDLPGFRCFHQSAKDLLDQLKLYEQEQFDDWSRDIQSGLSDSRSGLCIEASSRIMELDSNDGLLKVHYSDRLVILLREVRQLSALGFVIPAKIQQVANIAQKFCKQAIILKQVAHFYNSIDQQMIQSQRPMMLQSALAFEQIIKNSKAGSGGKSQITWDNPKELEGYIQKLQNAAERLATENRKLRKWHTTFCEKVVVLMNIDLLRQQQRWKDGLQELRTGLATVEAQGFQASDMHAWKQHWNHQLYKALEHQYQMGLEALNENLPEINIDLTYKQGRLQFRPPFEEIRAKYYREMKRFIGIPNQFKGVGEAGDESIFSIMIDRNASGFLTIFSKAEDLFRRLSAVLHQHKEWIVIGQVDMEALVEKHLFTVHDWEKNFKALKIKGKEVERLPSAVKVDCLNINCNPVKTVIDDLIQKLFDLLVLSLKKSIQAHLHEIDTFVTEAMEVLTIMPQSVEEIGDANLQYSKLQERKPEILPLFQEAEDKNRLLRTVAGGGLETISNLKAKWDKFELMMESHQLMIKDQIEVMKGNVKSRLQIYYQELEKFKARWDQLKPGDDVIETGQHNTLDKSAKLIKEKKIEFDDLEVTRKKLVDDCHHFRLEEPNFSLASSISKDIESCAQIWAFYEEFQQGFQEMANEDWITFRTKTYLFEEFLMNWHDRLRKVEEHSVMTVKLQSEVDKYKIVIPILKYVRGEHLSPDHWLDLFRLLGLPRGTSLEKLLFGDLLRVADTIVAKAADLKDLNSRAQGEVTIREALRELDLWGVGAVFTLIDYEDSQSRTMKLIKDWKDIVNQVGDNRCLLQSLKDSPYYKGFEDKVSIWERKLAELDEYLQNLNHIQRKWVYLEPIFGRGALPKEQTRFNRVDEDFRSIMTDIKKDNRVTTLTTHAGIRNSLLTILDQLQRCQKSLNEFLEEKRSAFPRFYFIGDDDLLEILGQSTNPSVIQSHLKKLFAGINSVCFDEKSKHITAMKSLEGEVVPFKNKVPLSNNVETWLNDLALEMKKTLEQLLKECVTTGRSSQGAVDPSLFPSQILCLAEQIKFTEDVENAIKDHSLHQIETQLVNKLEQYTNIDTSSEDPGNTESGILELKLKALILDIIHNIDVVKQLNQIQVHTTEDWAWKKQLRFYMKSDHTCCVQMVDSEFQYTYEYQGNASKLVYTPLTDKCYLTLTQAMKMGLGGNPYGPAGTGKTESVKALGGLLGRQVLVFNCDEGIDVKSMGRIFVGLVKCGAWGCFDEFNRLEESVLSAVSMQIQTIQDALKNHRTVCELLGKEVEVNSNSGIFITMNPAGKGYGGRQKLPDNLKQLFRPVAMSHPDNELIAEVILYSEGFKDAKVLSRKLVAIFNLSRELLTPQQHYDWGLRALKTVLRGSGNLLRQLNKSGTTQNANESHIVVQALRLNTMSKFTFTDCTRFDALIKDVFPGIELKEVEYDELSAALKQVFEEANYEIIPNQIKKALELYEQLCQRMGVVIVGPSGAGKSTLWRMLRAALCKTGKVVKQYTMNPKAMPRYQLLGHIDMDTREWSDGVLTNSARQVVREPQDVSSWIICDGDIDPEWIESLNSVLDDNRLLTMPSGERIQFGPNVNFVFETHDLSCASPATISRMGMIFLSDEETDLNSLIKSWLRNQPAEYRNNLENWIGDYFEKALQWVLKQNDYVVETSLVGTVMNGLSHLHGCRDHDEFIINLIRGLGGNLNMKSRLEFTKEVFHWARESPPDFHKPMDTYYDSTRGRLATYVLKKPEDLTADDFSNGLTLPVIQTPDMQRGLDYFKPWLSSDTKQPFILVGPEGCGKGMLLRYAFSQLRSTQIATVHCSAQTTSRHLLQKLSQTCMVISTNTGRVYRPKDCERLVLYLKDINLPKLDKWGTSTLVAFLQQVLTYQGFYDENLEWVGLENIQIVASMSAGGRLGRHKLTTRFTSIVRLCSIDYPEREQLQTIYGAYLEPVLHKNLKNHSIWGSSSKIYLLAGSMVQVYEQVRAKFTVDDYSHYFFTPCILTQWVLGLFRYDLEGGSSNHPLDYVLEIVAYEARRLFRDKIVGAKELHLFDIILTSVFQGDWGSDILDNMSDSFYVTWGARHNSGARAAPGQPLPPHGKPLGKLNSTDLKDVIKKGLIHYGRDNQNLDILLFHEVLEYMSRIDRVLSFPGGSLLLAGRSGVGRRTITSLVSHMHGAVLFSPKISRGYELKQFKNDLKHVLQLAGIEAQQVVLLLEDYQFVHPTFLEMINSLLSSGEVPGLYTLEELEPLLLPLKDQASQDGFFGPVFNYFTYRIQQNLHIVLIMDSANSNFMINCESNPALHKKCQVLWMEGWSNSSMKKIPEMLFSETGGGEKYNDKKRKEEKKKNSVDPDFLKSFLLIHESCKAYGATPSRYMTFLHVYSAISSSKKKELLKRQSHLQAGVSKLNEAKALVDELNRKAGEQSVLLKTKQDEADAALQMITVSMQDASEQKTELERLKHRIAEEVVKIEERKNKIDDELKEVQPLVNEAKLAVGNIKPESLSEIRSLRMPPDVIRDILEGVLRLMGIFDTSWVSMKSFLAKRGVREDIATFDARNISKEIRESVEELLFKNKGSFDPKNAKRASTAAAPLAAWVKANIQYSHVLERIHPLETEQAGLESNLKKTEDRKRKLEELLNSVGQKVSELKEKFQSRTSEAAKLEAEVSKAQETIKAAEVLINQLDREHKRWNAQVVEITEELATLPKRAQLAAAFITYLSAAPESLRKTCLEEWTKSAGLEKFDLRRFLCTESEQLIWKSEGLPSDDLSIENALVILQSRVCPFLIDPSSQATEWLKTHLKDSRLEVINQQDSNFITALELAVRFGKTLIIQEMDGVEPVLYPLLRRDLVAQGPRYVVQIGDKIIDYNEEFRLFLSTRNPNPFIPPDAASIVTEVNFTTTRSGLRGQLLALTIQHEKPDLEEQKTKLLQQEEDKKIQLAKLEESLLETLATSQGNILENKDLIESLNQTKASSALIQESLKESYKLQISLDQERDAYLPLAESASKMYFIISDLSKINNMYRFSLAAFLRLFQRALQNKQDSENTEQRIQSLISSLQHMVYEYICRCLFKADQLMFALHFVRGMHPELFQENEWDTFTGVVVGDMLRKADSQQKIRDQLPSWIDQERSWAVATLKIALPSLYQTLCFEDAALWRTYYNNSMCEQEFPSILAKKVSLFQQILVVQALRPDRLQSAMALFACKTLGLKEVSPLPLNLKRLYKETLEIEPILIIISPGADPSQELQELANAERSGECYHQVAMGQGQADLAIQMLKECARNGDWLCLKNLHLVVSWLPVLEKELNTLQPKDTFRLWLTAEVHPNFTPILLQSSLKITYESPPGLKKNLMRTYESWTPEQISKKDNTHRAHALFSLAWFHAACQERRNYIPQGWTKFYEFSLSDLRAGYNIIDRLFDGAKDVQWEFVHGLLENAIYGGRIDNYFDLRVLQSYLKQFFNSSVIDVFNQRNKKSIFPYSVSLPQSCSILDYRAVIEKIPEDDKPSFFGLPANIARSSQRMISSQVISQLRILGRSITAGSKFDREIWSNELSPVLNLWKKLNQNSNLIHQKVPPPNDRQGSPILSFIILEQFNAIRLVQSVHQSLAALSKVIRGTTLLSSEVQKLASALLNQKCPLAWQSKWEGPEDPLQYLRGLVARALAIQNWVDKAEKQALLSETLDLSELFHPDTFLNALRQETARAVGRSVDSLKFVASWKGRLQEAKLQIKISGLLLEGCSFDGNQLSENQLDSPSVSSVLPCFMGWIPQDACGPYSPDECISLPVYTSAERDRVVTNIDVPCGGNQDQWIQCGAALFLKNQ
# [33] = molecular target: hypothetical protein XP_378771 (Homo sapiens)
# Chain of GroEL having Aspartate 490 substituted with Cysteine, biotinylated and conjugated onto NeutrAvidin beads (A1AJ51 whole entry D490C): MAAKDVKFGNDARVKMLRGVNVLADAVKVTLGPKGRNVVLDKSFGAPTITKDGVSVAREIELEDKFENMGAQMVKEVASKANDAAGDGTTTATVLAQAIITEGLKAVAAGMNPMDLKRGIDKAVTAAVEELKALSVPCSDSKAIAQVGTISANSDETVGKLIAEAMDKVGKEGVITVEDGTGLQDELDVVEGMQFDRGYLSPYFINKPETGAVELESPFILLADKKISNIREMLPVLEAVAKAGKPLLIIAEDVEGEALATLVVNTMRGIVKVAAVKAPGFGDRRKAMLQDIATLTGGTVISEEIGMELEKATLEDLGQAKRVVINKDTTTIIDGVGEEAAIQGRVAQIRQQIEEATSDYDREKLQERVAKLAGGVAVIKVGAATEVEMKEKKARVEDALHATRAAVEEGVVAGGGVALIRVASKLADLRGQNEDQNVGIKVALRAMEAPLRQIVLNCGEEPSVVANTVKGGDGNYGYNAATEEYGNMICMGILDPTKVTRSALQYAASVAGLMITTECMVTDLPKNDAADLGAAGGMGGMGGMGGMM
substance,measurement,setting,value
"GroEL having Aspartate 490 substituted with Cysteine, biotinylated and conjugated onto NeutrAvidin beads (from UniProt A1AJ51 1-548)",Spectrum Count,[1],11 count
same,Spectrum Count,[2],9 count
same,Spectrum Count,[3],26 count
same,Spectrum Count,[4],11 count
same,Spectrum Count,[5],41 count
same,Spectrum Count,[6],11 count
same,Spectrum Count,[7],10 count
same,Spectrum Count,[8],16 count
same,Spectrum Count,[9],12 count
same,Spectrum Count,[10],9 count
same,Spectrum Count,[11],9 count
same,Spectrum Count,[12],9 count
same,Spectrum Count,[13],13 count
same,Spectrum Count,[14],41 count
same,Spectrum Count,[15],11 count
same,Spectrum Count,[16],11 count
same,Spectrum Count,[17],16 count
same,Spectrum Count,[18],12 count
same,Spectrum Count,[19],10 count
same,Spectrum Count,[20],12 count
same,Spectrum Count,[21],13 count
same,Spectrum Count,[22],16 count
same,Spectrum Count,[23],10 count
same,Spectrum Count,[24],113 count
same,Spectrum Count,[25],9 count
same,Spectrum Count,[26],33 count
same,Spectrum Count,[27],28 count
same,Spectrum Count,[28],53 count
same,Spectrum Count,[29],110 count
same,Spectrum Count,[30],21 count
same,Spectrum Count,[31],13 count
same,Spectrum Count,[32],10 count
same,Spectrum Count,[33],17 count

# — patent US20090093061A1
